Data as given in patent US20180148497A1.

Assays:
[1] = molecular target: cell surface Env of HIV-1 infected (p24+) CD4+ T cells (IMCs subtype AE CM235, subtype B BaL, subtype C 1086.C, as a group); test: flow cytometry, negative control staining of p24+ IMC-infected CD4+ T cells (FIG. 27)
[2] = molecular target: cell surface Env of HIV-1 infected (p24+) CD4+ T cells (IMCs subtype AE CM235, subtype B BaL, subtype C 1086.C, as a group); test: flow cytometry, staining of p24+ CD4+ T cells infected with BaL, CM235 or 1086.C IMC (FIG. 27)
[3] = molecular target: cell surface Env of HIV-1 infected (p24+) CD4+ T cells (IMCs subtype AE CM235, subtype B BaL, subtype C 1086.C, as a group); test: flow cytometry, indirect staining of p24+ CD4+ T cells infected with BaL, CM235 or 1086.C IMC (FIG. 27)

secondary conjugated Abs (secondary fluoresceinated anti-human IgG Abs) (antibody)
% of HIV-1 infected (p24+) CD4+ T cells recognized [1]: < 5%

HIV-1 × Fluorescein Bi-Specific Diabody (7B2 × 4420) (bispecific antibody)
% of HIV-1 infected (p24+) CD4+ T cells recognized [2]: 66 to 78%

7B2 mAb (anti-gp41 cluster I) (antibody)
% of HIV-1 infected (p24+) CD4+ T cells recognized [3]: 24 to 38%

Palivizumab mAb (anti-RSV) (antibody)
% of HIV-1 infected (p24+) CD4+ T cells recognized [1]: < 5%
